US20240376208A1 (AFFIMED, published 2024)

Columns and labels:
[1] = target: CD38 on primary human NK cells (human, UniProt P28907 1-300); test: cell-based or functional assay
[2] = target: T1, His-tagged human EGFR extracellular domain (human, UniProt P00533 25-645); test: ELISA, construct captured on coated His-tagged human EGFR extracellular domain
T1 construct: extracellular domain; Coated at 3.0 ug/mL to capture the EGFR-targeting constructs; not shown: His tag

[3] = target: T2, biotinylated dimeric CD16A antigen (human, UniProt P08637 17-208, limits assumed, biotinylated (site not stated)); test: ELISA, biotinylated dimeric CD16A titrated on coated construct
T2 construct: Soluble antigen; also called soluble CD16A antigen
T2 sequence (P08637 17-208 limits assumed): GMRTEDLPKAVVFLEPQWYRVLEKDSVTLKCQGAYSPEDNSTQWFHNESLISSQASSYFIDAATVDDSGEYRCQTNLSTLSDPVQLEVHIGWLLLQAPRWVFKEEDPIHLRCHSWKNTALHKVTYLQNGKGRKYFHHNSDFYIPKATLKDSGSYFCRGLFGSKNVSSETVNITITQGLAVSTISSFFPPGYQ
Experimental: (§1) For the capturing approach, 96-well ELISA plates (Immuno Maxisorp, Nunc) were coated overnight at 4° C. with His-tagged human EGFR or BCMA extracellular domain at concentrations of 3.0 or 0.4 μg/mL, respectively. After blocking with 3% (w/v) skimmed milk powder dissolved in phosphate buffered saline (PBS), antigen coated plates were used for capturing of different multivalent bispecific engagers at concentrations of 3-5 μg/mL in PBS containing 0.3% (w/v) skimmed milk powder. After washing three times with 300 μL per well of PBS containing 0.1% (v/v) Tween 20, plates were incubated with serial dilutions of biotinylated dimeric or monomeric CD16A antigen in PBS containing 0.3% (w/v) skimmed milk powder for 1.5 h at room temperature. After washing, plates were incubated with the detection conjugate Streptavidin HRP, 1:10,000 diluted in PBS containing 0.3% (w/v) skimmed milk powder for 1 h followed by washing and incubation with tetramethylbenzidine substrate (Seramun) for 1-2 min. Reaction was stopped by addition of 0.5 M H₂SO₄ (100 μL/well). Absorbance was measured at 450 nm using a multiwell plate reader, plotted and EC₅₀ values were determined by fitting a nonlinear regression model to sigmoidal dose-response curves (four parameters logistic fit) using GraphPad Prism software.
(§2) Concentration dependent binding of antibody constructs to coated recombinant CD16A antigen, or of soluble monomeric or dimeric CD16 antigen variants to coated or target antigen captured antibody constructs was analyzed in ELISA. Half maximal binding concentrations (EC₅₀) were determined by fitting a nonlinear regression model to sigmoidal dose-response curves (four parameters logistic fit) using GraphPad Prism software.

[4] = target: T3, biotinylated monomeric CD16A antigen (human, UniProt P08637 17-208, limits assumed, biotinylated (site not stated)); test: ELISA, biotinylated monomeric CD16A titrated on construct captured by coated His-tagged human EGFR extracellular domain
T3 construct: Soluble antigen; also called soluble CD16A antigen
T3 sequence (P08637 17-208 limits assumed): as above
Experimental: as §1, §2

[5] = target: T3, biotinylated monomeric CD16A antigen; test: ELISA, biotinylated monomeric CD16A titrated on coated construct
Experimental: as §1, §2

[6] = target: T4, recombinant CD16A 158F fused to monomeric human Fc (human, UniProt P08637 17-208); test: ELISA, construct titrated on coated CD16A 158F fused to monomeric human Fc
T4 construct: also called recombinant CD16 antigen variant; not shown: monomeric human Fc
T4 sequence (P08637 17-208): as the sequence (P08637 17-208 limits assumed) above
Experimental: To assess binding of EGFR/CD16 or BCMA/CD16 antibodies to coated antigen in ELISA, 96-well ELISA plates (Immuno Maxisorp, Nunc) were coated overnight at 4° C. with recombinant CD16 antigen variants fused to monomeric human Fc at a concentration of 1.5 μg/mL in 100 mM carbonate-bicarbonate buffer. After blocking with 3% (w/v) skimmed milk powder dissolved in phosphate buffered saline (PBS) serial dilutions of bispecific antibody constructs were incubated on the antigen coated plates for 1.5 h at room temperature. […] After washing, plates were incubated with tetramethylbenzidine substrate (Seramun) for 1-2 min. Reaction was stopped by addition of 0.5 M H₂SO₄ (100 μL/well). Absorbance was measured at 450 nm using a multiwell plate reader, plotted and EC₅₀ values were determined by fitting a nonlinear regression model to sigmoidal dose-response curves (four parameters logistic fit) using GraphPad Prism software.
as §2

[7] = target: T2, biotinylated dimeric CD16A antigen; test: ELISA, biotinylated dimeric CD16A titrated on construct captured by coated His-tagged human EGFR extracellular domain
Experimental: as §1, §2

[8] = target: recombinant CD16A 158V fused to monomeric human Fc (human, UniProt P08637 17-208); test: ELISA, construct titrated on coated CD16A 158V fused to monomeric human Fc
recombinant CD16A 158V fused to monomeric human Fc, sequence (P08637 17-208 F176V): as the sequence (P08637 17-208 limits assumed) above, with F160V counted along it

[9] = target: T2, biotinylated dimeric CD16A antigen; test: ELISA, biotinylated dimeric CD16A titrated on construct captured by coated His-tagged human BCMA extracellular domain
Experimental: as §1, §2

[10] = target: T3, biotinylated monomeric CD16A antigen; test: ELISA, biotinylated monomeric CD16A titrated on construct captured by coated His-tagged human BCMA extracellular domain
Experimental: as §1, §2

[11] = target: T5, BCMA on MM.1S target cells (UniProt Q02223 1-184, limits assumed); test: cell-based or functional assay
T5 sequence (looked up): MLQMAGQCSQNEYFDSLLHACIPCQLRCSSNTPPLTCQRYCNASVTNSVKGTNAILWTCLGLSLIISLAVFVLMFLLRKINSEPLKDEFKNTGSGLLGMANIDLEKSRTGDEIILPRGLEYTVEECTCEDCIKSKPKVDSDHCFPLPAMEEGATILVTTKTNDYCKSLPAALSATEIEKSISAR

Binder	EC50 [pM], 4 h calcein-release NK cell fratricide assay, E:T 1:1 [1] [pM]	Emax [%], 4 h calcein-release NK cell fratricide assay, E:T 1:1 [1] [%]	binding result [2]	EC50 [3] [nM]	EC50 [4] [nM]	EC50 [5] [nM]	EC50 [6] [nM]	EC50 [7] [nM]	EC50 [8] [nM]	EC50 [9] [nM]	EC50 [10] [nM]	EC50 [pM], 4 h calcein-release cytotoxicity on BCMA+ MM.1S target cells, NK cells E:T 5:1 [11] [pM]	Emax [%], 4 h calcein-release cytotoxicity on BCMA+ MM.1S target cells, NK cells E:T 5:1 [11] [%]
IgAb_51 (antibody, V domains shown) VH: EVQLLESGGGLVQPGGSLRLSCAVSGFTFNSFAMSWVRQAPGKGLEWVSAISGSGGGTYYADSVKGRFTISRDNSKNTLYLQMNSLRAEDTAVYFCAKDKILWFGEPVFDYWGQGTLVTVSS VL: not shown	66.5	68.6											
scFv-IgAb_47 (bispecific antibody) heavy: QVQLVQSGAEVKKPGESLKVSCKASGYTFTSYYMHWVRQAPGQGLEWMGAIEPMYGSTSYAQKFQGRVTMTRDTSTSTVYMELSSLRSEDTAVYYCARGSAYYYDFADYWGQGTLVTVSSASTKGPSVFPLAPSSKSTSGGTAALGCLVKDYFPEPVTVSWNSGALTSGVHTFPAVLQSSGLYSLSSVVTVPSSSLGTQTYICNVNHKPSNTKVDKKVEPKSCDKTHTCPPCPAPEFEGGPSVFLFPPKPKDTLMISRTPEVTCVVVAVSHEDPEVKFNWYVDGVEVHNAKTKPREEQYNSTYRVVSVLTVLHQDWLNGKEYKCKVSNKALPAPIEKTISKAKGQPREPQVYTLPPSREEMTKNQVSLTCLVKGFYPSDIAVEWESNGQPENNYKTTPPVLDSDGSFFLYSKLTVDKSRWQQGNVFSCSVMHEALHNHYTQKSLSLSPGGGGGSGGGGSQVQLQESGPGLVKPSETLSLTCTVSGGSVSSGSYYWSWIRQPPGKGLEWIGYIYYSGSTNYNPSLKSRVTISVDTSKNQFSLKLSSVTAADTAVYYCARNPISIPAFDIWGQGTMVTVSSGGSGGSGGSGGSGGSGGSQPVLTQPPSVSVAPGKTARITCGGNNIGSKSVHWYQQKPGQAPVLVIYYDSDRPSGIPERFSGSNSGNTATLTISRVEAGDEADYYCQVWDTSSDHVLFGGGTKLTVL light: SYVLTQPSSVSVAPGQTATISCGGHNIGSKNVHWYQQRPGQSPVLVIYQDNKRPSGIPERFSGSNSGNTATLTISGTQAMDEADYYCQVWDNYSVLFGGGTKLTVLGQPKAAPSVTLFPPSSEELQANKATLVCLISDFYPGAVTVAWKADSSPVKAGVETTTPSKQSNNKYAASSYLSLTPEQWKSHRSYSCQVTHEGSTVEKTVAPTECS			binds	0.89	1.62	2	0.18	0.76	0.16				
aBi-scDb-Fc_02 (bispecific antibody) chain 1: DKTHTCPPCPAPEFEGGPSVFLFPPKPKDTLMISRTPEVTCVVVAVSHEDPEVKFNWYVDGVEVHNAKTKPREEQYNSTYRVVSVLTVLHQDWLNGKEYKCKVSNKALPAPIEKTISKAKGQPREPQVYTLPPSREEMTKNQVSLTCLVKGFYPSDIAVEWESNGQPENNYKTTPPVLDSDGSFFLTSKLTVDKSRWQQGNVFSCSVMHEALHNHYTQKSLSLSPGGGGGSGGGGSSYVLTQPSSVSVAPGQTATISCGGHNIGSKNVHWYQQRPGQSPVLVIYQDNKRPSGIPERFSGSNSGNTATLTISGTQAMDEADYYCQVWDNYSVLFGGGTKLTVLGGSGGSQVQLVQSGAEVKKPGESLKVSCKASGYTFTSYYMHWVRQAPGQGLEWMGAIEPMYGSTSYAQKFQGRVTMTRDTSTSTVYMELSSLRSEDTAVYYCARGSAYYYDFADYWGQGTLVTVSSGGSGGSGGSGGSGGSGGSSYVLTQPSSVSVAPGQTATISCGGHNIGSKNVHWYQQRPGQSPVLVIYQDNKRPSGIPERFSGSNSGNTATLTISGTQAMDEADYYCQVWDNYSVLFGGGTKLTVLGGSGGSQVQLVQSGAEVKKPGESLKVSCKASGYTFTSYYMHWVRQAPGQGLEWMGAIEPMYGSTSYAQKFQGRVTMTRDTSTSTVYMELSSLRSEDTAVYYCARGSAYYYDFADYWGQGTLVTVSSAAAGSHHHHHH chain 2: EVQLLESGGGLVQPGGSLRLSCAASGFTFSNYDMAWVRQAPGKGLEWVSSISTRGDITSYRDSVKGRFTISRDNSKNTLYLQMNSLRAEDTAVYYCARQDYYTDYMGFAYWGQGTLVTVSSGGGGSGGGGSGGGGSAIQMTQSPSSLSASVGDRVTITCRASEDIYNGLAWYQQKPGKAPKLLIYGASSLQDGVPSRFSGSGSGTEFTLTISSLQPEDEATYYCAGPHKYPLTFGGGTKVEIKDKTHTCPPCPAPEFEGGPSVFLFPPKPKDTLMISRTPEVTCVVVAVSHEDPEVKFNWYVDGVEVHNAKTKPREEQYNSTYRVVSVLTVLHQDWLNGKEYKCKVSNKALPAPIEKTISKAKGQPREPQVYTLPPSREEMTKNQVSLYCLVKGFYPSDIAVEWESNGQPENNYKTTPPVLDSDGSFFLYSKLTVDKSRWQQGNVFSCSVMHEALHNHYTQKSLSLSPGGGGGSGGGGSSYVLTQPSSVSVAPGQTATISCGGHNIGSKNVHWYQQRPGQSPVLVIYQDNKRPSGIPERFSGSNSGNTATLTISGTQAMDEADYYCQVWDNYSVLFGGGTKLTVLGGSGGSQVQLVQSGAEVKKPGESLKVSCKASGYTFTSYYMHWVRQAPGQGLEWMGAIEPMYGSTSYAQKFQGRVTMTRDTSTSTVYMELSSLRSEDTAVYYCARGSAYYYDFADYWGQGTLVTVSSGGSGGSGGSGGSGGSGGSSYVLTQPSSVSVAPGQTATISCGGHNIGSKNVHWYQQRPGQSPVLVIYQDNKRPSGIPERFSGSNSGNTATLTISGTQAMDEADYYCQVWDNYSVLFGGGTKLTVLGGSGGSQVQLVQSGAEVKKPGESLKVSCKASGYTFTSYYMHWVRQAPGQGLEWMGAIEPMYGSTSYAQKFQGRVTMTRDTSTSTVYMELSSLRSEDTAVYYCARGSAYYYDFADYWGQGTLVTVSSAAAGSHHHHHH				1		3.84	0.45		0.34	1.25	2.36	2.3	62.8
